Earlier results in patent US20030166570A1, “Peptide and its use in the treatment of hyperpigmentation conditions” (priority 2001, published 2003).
Ends that are not written are not given here.

Biological target: MC-1 receptor (Homo sapiens, UniProt Q01726)
Details: rank order; physiologic range for signal transduction

Chain of MC-1 receptor (Q01726 whole entry): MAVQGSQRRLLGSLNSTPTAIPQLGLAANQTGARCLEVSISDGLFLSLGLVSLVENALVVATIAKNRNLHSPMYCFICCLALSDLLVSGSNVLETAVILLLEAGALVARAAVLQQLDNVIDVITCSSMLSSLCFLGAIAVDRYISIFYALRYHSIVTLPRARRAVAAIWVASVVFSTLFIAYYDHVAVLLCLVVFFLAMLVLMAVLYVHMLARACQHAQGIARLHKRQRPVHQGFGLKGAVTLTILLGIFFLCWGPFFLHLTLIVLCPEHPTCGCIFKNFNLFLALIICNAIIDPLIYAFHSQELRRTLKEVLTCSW

ACTH 1-10: peptide fragment defined by residues 1-10 of ACTH
relative affinities for the MC-1 receptor and stimulation of cAMP: no activity

Ac-Ser^1-Tyr^2-Ser^3-Met^4-Glu^5-His^6-Phe^7-Arg^8-Trp^9-Gly^10-Lys^11-Pro^12-Val^13-NH2 [α-MSH]
relative affinities for the MC-1 receptor and stimulation of cAMP: ACTH 1-17=α-MSH>ACTH

ACTH: 39-mer polypeptide hormone expressed in skin melanocytes and keratinocytes, derived from POMC (SYSMEHFRWGKPVGKKRRPVKVYPNGAEDESAEAFPLEF-NH2; UniProt P01189 138-176, looked up)
relative affinities for the MC-1 receptor and stimulation of cAMP: ACTH 1-17=α-MSH>ACTH
